Laboratory results from patent publication US20220380463A1 (Adimab, published 2022).
Changes are numbered by the printed parent chain.

B1: SAD10318_P03_E07 (ADI-48601) (antibody, V domains shown)
VH: QVQLVQSGAEVKKPGASVKVSCKASGFNIKDYYMHWVRQAPGQRLEWMGWIDLENANTIYDAKFQGRVTITRDTSASTAYMELSSLRSEDTAVYYCARDHYHRYFYDVWGQGTLVTVSS
VL: DIVMTQSPDSLAVSLGERATINCKSSQSLLNAHTGKNYLAWYQQKPGQPPKLLIYWASTRESGVPDRFSGSGSGTDFTLTISSLQAEDVAVYYCHQSHSRRTFGGGTKVEIK
notes: IgG; also called Ab191
B2: SAD10318_P04_B11 (ADI-48614) (antibody, V domains shown)
VH: B1 VH
VL: B1 VL with Y38H, H95K, H98Y
notes: IgG; also called Ab217
B3: SAD10320_P01_F03 (ADI-48647) (antibody, V domains shown)
VH: B1 VH with H100A, H102P, R103H
VL: B1 VL with H33R, H95K, H98Y, S99L, R100H
notes: IgG; also called Ab65
B4: SAD10320_P01_E01 (ADI-48645) (antibody, V domains shown)
VH: B1 VH with H100A, H102G, R103H, Y104V
VL: B1 VL with H33R, H95K, H98Y, S99K, R100H
notes: IgG; also called Ab49
B5: SAD10318_P04_D10 (ADI-48613) (antibody, V domains shown)
VH: B1 VH with H100A, H102G, R103H, F105H
VL: B1 VL with N31H, H33R, Y38H, H95K, H98Y
notes: IgG; also called Ab211
B6: SAD10320_P01_D01 (ADI-48644) (antibody, V domains shown)
VH: B1 VH with H100A, H102G, R103H, Y104G
VL: B1 VL with H33R, H95K, H98Y, R100H
notes: IgG; also called Ab48
B7: SAD10320_P02_C04 (ADI-48648) (antibody, V domains shown)
VH: B1 VH with H100A, H102G
VL: B1 VL with H33R, H95K, S99T
notes: IgG; also called Ab71
B8: SAD10320_P01_A02 (ADI-48646) (antibody, V domains shown)
VH: B1 VH with H100A, H102P, R103H
VL: B1 VL with H33R, H95K, H98Y, S99H, R100E
notes: IgG; also called Ab53
B9: SAD10318_P03_F07 (ADI-48602) (antibody, V domains shown)
VH: B1 VH with H100A, Y101H, H102G, F105H
VL: B1 VL with S10C, H33R, K36H, H95K, R100H
notes: IgG; also called Ab192
B10: SAD10318_P04_D11 (ADI-48616) (antibody, V domains shown)
VH: B1 VH with H100A, H102G, R103H
VL: B1 VL with H33R, K36H, Y38H, H98Y, R100H
notes: IgG; also called Ab219
B11: SAD10319_P01_D01 (ADI-48622) (antibody, V domains shown)
VH: QVQLVQSGAEVKKPGASVKVSCKASGYTFKSYDMHWVRQAPGQRLEWMGWIDAGTGNTKYSQKFQGRVTITRDTSASTAYMELSSLRSEDTAVYYCARDAYGRYFYDVWGQGTLVTVSS
VL: B1 VL with H33R, H95K, H98Y
notes: IgG; also called Ab231
B12: SAD10320_P01_B01 (ADI-48643) (antibody, V domains shown)
VH: B1 VH with H100A, H102G, R103H, Y104I
VL: B1 VL with H33R, H95K, H98Y, S99V, R100H
notes: IgG; also called Ab46
B13: SAD10318_P03_E08 (ADI-48605) (antibody, V domains shown)
VH: B1 VH
VL: B1 VL with Y38H, H95K, H98Y, S99H, T102H
notes: IgG; also called Ab199
B14: SAD10318_P03_F08 (ADI-48606) (antibody, V domains shown)
VH: B1 VH
VL: B1 VL with Y38H, H95K, H98Y, T102H
notes: IgG; also called Ab200
B15: SAD10320_P02_B06 (ADI-48653) (antibody, V domains shown)
VH: B1 VH with H100A, H102G, R103H, Y104W
VL: B1 VL with H33R, H95K, H98Y, S99H, R100H
notes: IgG; also called Ab83
B16: SAD10318_P03_H08 (ADI-48607) (antibody, V domains shown)
VH: B1 VH with H100A, R103H
VL: B1 VL with H33R, K36H, Y38H
notes: IgG; also called Ab202
B17: SAD10318_P04_C10 (ADI-48612) (antibody, V domains shown)
VH: B1 VH with H100A, H102G, F105H, Y106H
VL: B1 VL with H33R, K36H, Y38H, H98Y, S99H
notes: IgG; also called Ab210
B18: SAD10318_P04_A12 (ADI-48618) (antibody, V domains shown)
VH: B1 VH with H100A, Y104H
VL: B1 VL with N31H, A32P, H33R, H95K, H98Y, S99H, R100H
notes: IgG; also called Ab224
B19: SAD10318_P04_H11 (ADI-48617) (antibody, V domains shown)
VH: B1 VH with H102G, V108H
VL: B1 VL with S7Y, K36H, H98Y, R100H
notes: IgG; also called Ab223
B20: SAD10320_P02_C06 (ADI-48654) (antibody, V domains shown)
VH: B1 VH with H100A, H102G
VL: B1 VL with H33R, H95K, H98G, S99H
notes: IgG; also called Ab84
B21: SAD10318_P04_C11 (ADI-48615) (antibody, V domains shown)
VH: B1 VH with Y101H, H102G
VL: B1 VL with H33R, K36H, Y38H, H95K, H98Y
notes: IgG; also called Ab218
B22: SAD10320_P02_E04 (ADI-48649) (antibody, V domains shown)
VH: B1 VH with H100A, R103E
VL: B1 VL with H33R, H95K, S99V
notes: IgG; also called Ab72

Experiments:
[1] = target: T1, human CD3 on CD3+ Jurkat cells (human, UniProt P07766 23-207); test: flow cytometry, 100 nM IgG on CD3+ Jurkat cells, pH 7.4
T1 construct: whole, on cells; Native CD3 complex on cells; the other CD3 chains are not specified for this assay; also called Human CD3+ Jurkat
T1 sequence (P07766 23-207): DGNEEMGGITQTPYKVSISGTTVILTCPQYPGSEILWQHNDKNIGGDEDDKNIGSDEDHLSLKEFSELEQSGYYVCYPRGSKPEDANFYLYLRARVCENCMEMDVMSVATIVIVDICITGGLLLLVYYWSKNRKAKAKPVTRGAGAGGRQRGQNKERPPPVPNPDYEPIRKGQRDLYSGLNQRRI
Description: (§1) Specificity of the anti-CD3 antibodies for human CD3+ Jurkat cells compared to CHO-S cells at pH 6.0 and 7.4 was determined using a FACS cell binding assay. Briefly, CD3+ human Jurkat cells and CHO-S cells were thawed and washed with cold PBSF buffer, pH 7.4 (PBS+0.1% BSA, pH 7.4). About 200,000 cells were aliquoted per well of a 96-well plate and pelleted by centrifugation (5 minutes at 500×g). The cells were washed with either PBSF pH 7.4 or PBSF pH 6.0 (PBS+0.1% BSA, pH 6.0), and then resuspended in 100 ul in either PBSF pH 7.4 or PBSF pH 6.0 with IgG antibody produced in yeast (100 nM). The mixture (cells+antibody) was incubated for 20 minutes on ice, then washed twice with either PBSF pH 7.4 or PBSF pH 6.0. Cells were resuspended in 50 ul of propidium iodide (1:500 dilution) and anti-human IgG-RPE (1:100 dilution) prepared in either PBSF pH 7.4 or PBSF pH 6.0, then incubated for 20 minutes on ice in the dark before cells were washed twice with either PBSF pH 7.4 or PBSF pH 6.0. Binding was analyzed on FACS Canto II.
(§2) Cell binding assays. CD3+ human Jurkat cells (ATCC) and CHO-S cells (Invitrogen/ThermoFisher) were thawed and washed with cold PBSF buffer, pH 7.4 (PBS+0.1% BSA, pH 7.4). About 200,000 cells were aliquoted per well of a 96-well plate (FACS Assay Plate VWR BD 353263) and pelleted by centrifugation (5 minutes at 500×g). The cells were washed with either PBSF pH 7.4 or PBSF pH 6.0 (PBS+0.1% BSA, pH 6.0), and then resuspended in 100 ul in either PBSF pH 7.4 or PBSF pH 6.0 with IgG antibody (100 nM) produced in yeast as described above. The mixture (cells+antibody) was incubated for 20 minutes on ice, then washed twice with either PBSF pH 7.4 or PBSF pH 6.0. Cells were resuspended in 50 ul of propidium iodide (Roche; 1:500 dilution) and anti-human IgG-RPE (Southern Biotech; 1:100 dilution) prepared in either PBSF pH 7.4 or PBSF pH 6.0, then incubated for 20 minutes on ice in the dark before cells were washed twice with either PBSF pH 7.4 or PBSF pH 6.0. Binding was analyzed on FACS Canto II.

[2] = target: T1, human CD3 on CD3+ Jurkat cells; test: flow cytometry, 100 nM IgG on CD3+ Jurkat cells, pH 6.0
Description: as §1, §2

[3] = target: T1, human CD3 on CD3+ Jurkat cells; test: flow cytometry on CD3+ Jurkat cells, ratio of MFI at pH 6.0 to pH 7.4
Description: as §1, §2

Row | Binder | MFI pH 7.4 [1] | MFI pH 6.0 [2] | MFI pH 6.0/MFI pH 7.4 [3]
1 | B1 | 52 MFI | 1080 MFI | 20.7
2 | B2 | 58 MFI | 148 MFI | 2.6
3 | B3 | 141 MFI | 4340 MFI | 30.9
4 | B4 | 41 MFI | 450 MFI | 11.1
5 | B5 | 66 MFI | 52 MFI | 0.8
6 | B6 | 124 MFI | 860 MFI | 6.9
7 | B7 | 5140 MFI | 6160 MFI | 1.2
8 | B8 | 53 MFI | 1270 MFI | 24.1
9 | B9 | 34 MFI | 202 MFI | 5.9
10 | B10 | 41 MFI | 36 MFI | 0.9
11 | B11 | 567 MFI | 3060 MFI | 5.4
12 | B12 | 265 MFI | 4200 MFI | 15.9
13 | B13 | 55 MFI | 282 MFI | 5.2
14 | B14 | 76 MFI | 89 MFI | 1.2
15 | B15 | 1030 MFI | 3110 MFI | 3
16 | B16 | 52 MFI | 86 MFI | 1.7
17 | B17 | 50 MFI | 42 MFI | 0.8
18 | B18 | 41 MFI | 170 MFI | 4.2
19 | B19 | 53 MFI | 166 MFI | 3.1
20 | B20 | 4890 MFI | 5590 MFI | 1.1
21 | B21 | 37 MFI | 40 MFI | 1.1
22 | B22 | 639 MFI | 2320 MFI | 3.6
